Experimental data: article PMC5542595

Target: Leptospira interrogans heme oxygenase, wild type, ferric heme complex (Leptospira interrogans)
Experiment: cross-linking

**Q.** With “Leptospira interrogans ferredoxin-NADP+ reductase, wild type (enzyme)” as the substance, how does the stoichiometry N read?
**A.** 1
